Values quoted from earlier work as cited in US8399407B2 (Case Western Reserve University, priority 2009, dated 2013).

Details: pH 7.4 and 37° C.

In the case of Asp^B28-insulin, the “Susceptibility to fibrillation compared with human insulin” value is given as “more susceptible to fibrillation”.
